Earlier results in paper PMC5321513.

How the values were obtained:
14-3-3ζ (Homo sapiens) = 14-3-3ζ (Homo sapiens) (UniProt P63104)
14-3-3σ (Homo sapiens) = 14-3-3σ (Homo sapiens) (UniProt P31947)
Chain of 14-3-3σ (Homo sapiens) (P31947 whole entry): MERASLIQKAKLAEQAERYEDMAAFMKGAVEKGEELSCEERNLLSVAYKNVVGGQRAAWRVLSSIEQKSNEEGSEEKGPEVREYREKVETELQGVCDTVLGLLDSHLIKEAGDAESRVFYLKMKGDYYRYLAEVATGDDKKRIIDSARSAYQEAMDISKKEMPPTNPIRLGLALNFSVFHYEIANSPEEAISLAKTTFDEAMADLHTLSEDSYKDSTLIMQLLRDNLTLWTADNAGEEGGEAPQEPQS

Chain of 14-3-3ζ (Homo sapiens) (P63104 whole entry): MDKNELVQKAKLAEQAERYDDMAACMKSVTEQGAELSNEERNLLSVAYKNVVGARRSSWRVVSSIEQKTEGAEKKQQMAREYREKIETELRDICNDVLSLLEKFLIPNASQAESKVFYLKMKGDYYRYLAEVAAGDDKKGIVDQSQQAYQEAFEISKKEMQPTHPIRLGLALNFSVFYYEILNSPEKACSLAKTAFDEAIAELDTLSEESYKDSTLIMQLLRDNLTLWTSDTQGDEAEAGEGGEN

Substance	Kd (14-3-3ζ (Homo sapiens))	Kd (14-3-3σ (Homo sapiens))
C-RAF phosphopeptide (from UniProt P04049)	16.7 µM	–
p53 phosphopeptide (from UniProt P04637)	–	16.3 µM
